Test results: article PMC8378251, “Biochemical and Structural Characterisation of a Novel D-Lyxose Isomerase From the Hyperthermophilic Archaeon Thermofilum sp” (Frontiers in Bioengineering and Biotechnology, 2021)

Biological target: the molecule itself
Assay: SEC; calibrated Superdex 200 pg HiLoad 16/600, 25 mM Tris-HCl pH 8.0, 150 mM NaCl, 1.0 ml/min; apparent molecular mass ~46 kDa

B1: D-lyxose isomerase from Thermofilum sp. (TsLI) (enzyme, Thermofilum sp. ex4484_79)
chain: MLTKELVKEAREKAIRMLEKACIAITDEEKEKIEVTDFGLGVLYTFGLEILVYVNNERYCAKELVMFPRQICPEHRHPPIGSYLGKQETFRCRWGEVYLYVPGTPTPNPRARIPEEKKRYFTVWHEIVLRPGEQYTIPPNTLHWFQAGDEGAIVSEFSSQSIDEKDIFTDPNVKRIPEIV
notes: locus tag B6U94_07925; synthetic gene cloned into pET19b; subunit about 23 kDa; Homodimer; in the crystal the two monomers are joined by a disulfide bond between C22 of each subunit; No removal of the His tag is described; also called T. sp; LI; source: E. coli Rosetta (DE3) pLysS, purified (heat precipitation at 75°C, Ni-NTA, SEC)
B1 was tested, and the “stoichiometry N” value was 2.
